Test results published in article PMC5428233, “Cross-beta nanostructures based on dinaphthylalanine Gd-conjugates loaded with doxorubicin” (Scientific Reports, 2017).

Tests used:
Type in all cases: physicochemical
[1] = Transmission electron microscopy of self-assembled conjugates; conditions: 5.0 mg/mL solution dried on grid, phosphotungstic acid stain
Experimental: Self-assembled peptide conjugate at 5.0 mg/mL, as free base or as metal complex, was initially characterized using TEM. […] The presence of a diffraction pattern both in SAXS and in WAXS is fingerprint of a hierarchical organization of the molecules in fibers from the atomic to the nanoscale.
TEM images were acquired by LaMest (Pozzuoli, Italy) with a FEI TECNAI G12 Spirit-Twin microscope (LaB6 source) endowed of a bottom mounted FEI Eagle-4k CCD camera (Eindhoven, The Netherlands), working at 120 kV.

[2] = Aggregation by 1D 1H NMR at increasing concentration; conditions: H2O/D2O 90/10 v/v
Excerpt: This trend was also confirmed by ^1HNMR measurements (see Figure S4). We have recently analyzed the conformational properties of DOTA-L6-F4 in aqueous solution by mono- and multi-dimensional, homo- and hetero-nuclear NMR techniques. In the present work we have used a similar approach and thus implemented 1D [^1H] and 2D [^1H, ^1H] NMR spectroscopy to study two different compounds: DOTA-L6-F2 and 2Nal2 analogue in absence and in presence of the DOTA coordinated metal ion lanthanum (III), La. We used lanthanum (III) since it gives rise to a NMR “easy to handle” diamagnetic complex. Both DOTA-L6-F2 and 2Nal2 present low aggregation propensities. […] In detail by comparing spectra recorded at 0.3 mg/mL and 5.0 mg/mL chemical shift changes appear relevant in the spectral regions between 8.0 and 8.2 ppm, where signals from HN amide protons are present and between 3.0 and 3.5 ppm where several peaks overlap (Table S1). […]
NMR experiments were acquired in the temperature range of 298–303 K on either a Varian Unity Inova 600 MHz spectrometer provided with a cold probe or a 400 MHz Varian instrument provided with a 5-mm triple resonance probe and z-axis pulsed-field gradients. […] The DOTA-L6-F2 was analyzed in the concentration range 0.3 mg/mL (i.e., 0.3 mM)–5.0 mg/mL (i.e., 4.8 mM); for the La-DOTA-L6-F2 the examined concentration range was 0.3 mg/mL (i.e., 0.3 mM)–10.0 mg/mL (i.e., 8.5 mM). […]

[3] = Self-aggregation by intrinsic naphthyl fluorescence (intensity decrease, excimer peak); conditions: water, room temperature, excitation 280 nm
Experimental: Self-organization of the peptide conjugates at the atomic level was further characterized also in solution with fluorescence, UV-Vis, ^1HNMR, CD and FTIR spectroscopies. […] From ispection of Fig. 1b, the typical emission spectrum of the 2-naphthyl group with three maxima at 325, 340 and 355 nm, respectively, can be detected.
The determination of CAC (critical aggregate concentration) values was determined as previously described[6] by the titration of the fluorescent probe ANS (8-anilino-1-naphthalene sulfonic acid ammonium salt)[28], [29] with the peptide conjugates[30].

[4] = Water proton relaxation measurements / NMRD profiles; conditions: aqueous solution, 298 K
Excerpt: The paramagnetic relaxivity (r1p) of Gd (III) complexes is given by:1 r1p∝1/T1MH=Kf(τR) where K is a constant related to the strength of the dipolar interaction between the protons and the electronic magnetic moment, and τR is the correlation time associated with the reorientation of the Gd-H magnetic vector. This means that slowly moving high molecular weight systems are endowed with higher relaxivity than rapidly reorienting low molecular weight ones. In the case of self assembling Gd-containing systems, the extent of aggregation may be evaluated through the measure of the water proton longitudinal relaxation rate of its aqueous solution. In Fig. 8 are reported the NMRD (Nuclear Magnetic Resonance Dispersion) profiles of Gd-2Nal2 acquired at 21.5 MHz (0.5 T) and 298 K as a function of the complex concentration. […] At concentrations higher than 10–15 mg/mL the relaxivity assumes an almost stable value which corresponds to the system in the completely aggregated form. By analyzing the profile of the relaxivity data as a function of the applied field strength (NMRD - Nuclear Magnetic Relaxation Dispersion) it is possible to obtain an accurate determination of the reorientational correlation time (τR)[16], that is strictly related to the molecular size of the investigated system. NMRD profiles were acquired below (black circles) and above (white ones) the CAC values determined by ANS titration and ^1HNMR. […] Data were analyzed using the Solomon-Bloembergen-Morgan model, [18], considering one water molecule in the inner coordination sphere (q = 1) and fixing the exchange lifetime (τM) to a reliable value ([…]) on the basis of those previously reported for mono-amido DOTA derivatives[19]–[22]. The quantitative analysis of the NMRD profile of the aggregated form was not satisfactory when the simple inner- outer-sphere model was used, so the Lipari-Szabo approach was used for the description of the rotational dynamics. This model allows one to take into account the presence ofa certain degree of internal rotation superimposed on the overall tumbling motion, [24]. These two types ofmotion, a relatively fast local rotation of the coordination cage about the linker to the peptide scaffold superimposed on the global reorientation of the system, are characterized by different correlation times: τR ^l and τR ^g, respectively. The degree of correlation between global and local rotations is given by the parameter S^2, which takes values between 0 (completely independent motions) and 1 (entirely correlated motions).
Measure of R1 (longitudinal water proton relaxation rates) of Gd-2Nal2 were carried out on a Stelar Spinmaster spectrometer (Pavia, Italy) operating at 0.5 T which corresponds to 21.5 MHz Proton Larmor Frequency. R1 (1/T1) values were measured at 298 K by mean of the standard inversion-recovery technique. For the measure of the proton 1/T1 NMRD (Nuclear Magnetic Resonance Dispersion) profiles, a fast field-cycling Stelar relaxometer, operating over a continuum of magnetic field strengths from 0.00024 to 0.47 T (corresponding to 0.01–20 MHz proton Larmor frequencies) was used. The temperature was set at 298 K. The relaxometer is computer controlled and the absolute uncertainty is 1/T1 ± 1%. Additional data points were obtained on a Stelar Spinmaster spectrometer coupled to an electromagnet tunable at different Larmor Frequencies between 21.5 and 70 MHz. Experimental temperature control was obtained with an air-flow heater (Stelar VTC-91) endowed of a copper constantan thermocouple (uncertainty 0.1 °C). A previously reported relaxometric method[39] was used for the determination of the concentrations of the solutions used for the relaxometric characterization. The conventional Solomon-Bloembergen-Morgan theory was used for fitting of experimental data.

DOTA-L6-(2Nal)2 [2Nal2]
supramolecular aggregation / morphology in TEM images [1]: long fibrillary nanostructures
aggregation propensity by 1H NMR (in words) ([2]; 2Nal2 0.1-5.0 mg/mL, La-DOTA-L6-F2 0.3-10.0 mg/mL): cannot reveal significant aggregation
concentration of appearance of the excimer peak (380-430 nm) / formation of stable aggregates [3]: above 2.0 mg/mL
concentration at which self-aggregation begins (decrease of fluorescence intensity) ([3]; 0.025-20.0 mg/mL range): 200 to 500 µg/mL

DOTA-L6-F2 [reference compound]
concentration at which aggregation appears in 1H NMR spectra (spectral changes / line broadening) ([2]; 298-303 K): higher than 1.2 mg/mL

Gd-DOTA-L6-F2 [reference compound]
r1p (longitudinal proton relaxivity) ([4]; complex at 1 mg/mL): 5.7 mM⁻¹ s⁻¹
r1p (longitudinal proton relaxivity) ([4]; complex at 25 mg/mL (nanoaggregates), text: at 20 MHz): 6.0 mM⁻¹ s⁻¹
